Data published in paper PMC8318587, “Structure-guided microbial targeting of antistaphylococcal prodrugs” (eLife, 2021).

Key:
Test in all cases: Esterase substrate specificity, fluorogenic SAR library kinetics
Type in all cases: biochemical, Staphylococcus aureus
Conditions in all cases: other: SaGloB, fluorogenic ester substrate; pH 7.5; 37.0 °C
[1] = substrate: CC(C)OCC(=O)OCOc1ccc2c(c1)Oc1cc(OCOC(=O)COC(C)C)ccc1C21OC(=O)c2ccccc21
Description: (§1) Kinetic measurements were performed according to [White et al., 2018] with minor variation. Lyophilized human and mouse sera were resuspended according to manufacturer instructions in highly pure, filtered water at protein concentrations of 85 mg/mL and 70 mg/mL, respectively. One milliliter of resuspended serum was added to a 24 mL mastermix for a final concentration of 31.25 mM Tris pH 7.5, 312.5 mM NaCl, 1.25 mM MgCl2, 12.5% glycerol, and 3.4 mg/mL or 2.8 mg/mL protein for human and mouse serum, respectively. For purified proteins, 5 mL of a 75 µg/mL stock was added to yield a 20 mL mastermix containing 31.25 mM Tris pH 7.5, 312.5 mM NaCl, 1.25 mM MgCl2, 12.5% glycerol, and 18.75 µg/mL protein. Mastermix was stored on ice when not in use. Twenty microliters of mastermix was transferred to a black, 96-well half area microplate (Corning, CLS3993) and prewarmed at 37°C. Fluorogenic substrates were prepared as 10 mM stock solutions in 100% DMSO and were diluted in water to a starting concentration of 500 µM. Enzyme catalyzed substrate hydrolysis was initiated by addition of 5 µL substrate dilution in technical duplicate to the prewarmed serum or protein solution. Final assay concentrations were as follows: 25 mM Tris pH 7.5, 250 mM NaCl, 1 mM MgCl2, 10% glycerol, and protein at a concentration of 2.72 mg/mL (human serum), 2.24 mg/mL (mouse serum), or 15 µg/mL (FrmB, GloB). The resulting change in fluorescence (λex = 485 nm, λem = 520 nm) was followed for 15 min at 37°C, collecting data every 30 s on a FLUOstar Omega microplate reader (BMG Labtech). Fluorescence measurements were converted to molar concentrations using a fluorescein standard curve (2.5 nmol–0.6 pmol). The initial rates of reaction were measured three independent times with two technical replicates per measurement and fit to a line using GraphPad Prism (GraphPad Software, La Jolla, CA). Initial rates of reaction were plotted versus the concentration of substrate and fit to a standard Michaelis–Menten equation (v = Vmax[S]/(Km + [S])), yielding estimates of Vmax and Km. Values for kcat and kcat/Km were calculated based on amount of enzyme added when purified enzymes were used.

[2] = substrate: CC(C)SCC(=O)OCOc1ccc2c(c1)Oc1cc(OCOC(=O)CSC(C)C)ccc1C21OC(=O)c2ccccc21
Description: as §1

[3] = substrate: CCCC(=O)OCOc1ccc2c(c1)Oc1cc(OCOC(=O)CCC)ccc1C21OC(=O)c2ccccc21
Description: as §1

[4] = substrate: CCCC(C)C(=O)OCOc1ccc2c(c1)Oc1cc(OCOC(=O)C(C)CCC)ccc1C21OC(=O)c2ccccc21
Description: as §1

[5] = substrate: CCCCC(=O)OCOc1ccc2c(c1)Oc1cc(OCOC(=O)CCCC)ccc1C21OC(=O)c2ccccc21
Description: as §1

[6] = substrate: CCCOCC(=O)OCOc1ccc2c(c1)Oc1cc(OCOC(=O)COCCC)ccc1C21OC(=O)c2ccccc21
Description: as §1

[7] = substrate: CCOC(C)C(=O)OCOc1ccc2c(c1)Oc1cc(OCOC(=O)C(C)OCC)ccc1C21OC(=O)c2ccccc21
Description: as §1

[8] = substrate: CCOCC(=O)OCOc1ccc2c(c1)Oc1cc(OCOC(=O)COCC)ccc1C21OC(=O)c2ccccc21
Description: as §1

[9] = substrate: CCSC(C)C(=O)OCOc1ccc2c(c1)Oc1cc(OCOC(=O)C(C)SCC)ccc1C21OC(=O)c2ccccc21
Description: as §1

[10] = substrate: CCSCCC(=O)OCOc1ccc2c(c1)Oc1cc(OCOC(=O)CCSCC)ccc1C21OC(=O)c2ccccc21
Description: as §1

[11] = substrate: COC(C)C(=O)OCOc1ccc2c(c1)Oc1cc(OCOC(=O)C(C)OC)ccc1C21OC(=O)c2ccccc21
Description: as §1

[12] = substrate: COCC(=O)OCOc1ccc2c(c1)Oc1cc(OCOC(=O)COC)ccc1C21OC(=O)c2ccccc21
Description: as §1

[13] = substrate: CSCC(=O)OCOc1ccc2c(c1)Oc1cc(OCOC(=O)CSC)ccc1C21OC(=O)c2ccccc21
Description: as §1

B1: SaGloB (Staphylococcus aureus subsp. aureus str. Newman) (protein)
chain: MRISSLTLGLVDTNTYFIENDKAVILIDPSGESEKIIKKLNQINKPLKAILLTHAHFDHIGAVDDIVDRFDVPVYMHEAEFDFLKDPVKNGADKFKQYGLPIITSKVTPEKLNEGSTEIEGFKFNVLHTPGHSPGSLTYVFDEFAVVGDTLFNNGIGRTDLYKGDYETLVDSIQDKIFELEGDLPLFPGHGPYTTVDDEQLNPFLHG
With B1 the Km [1] was 12.0 µM, the Vmax [1] was 2.91 pmol*min-1*μg protein-1 and the kcat [1] was 0.435 10-3 s-1. For the same protein, the kcat/Km [1] was 36.1 M⁻¹ s⁻¹, the Km [2] was 65.8 µM and the Vmax [2] was 4.19 pmol*min-1*μg protein-1. For the same protein, the kcat [2] was 0.627 10-3 s-1, the kcat/Km [2] was 9.53 M⁻¹ s⁻¹ and the Km [3] was 6.23 µM. The Vmax [3] was 0.497 pmol*min-1*μg protein-1, the kcat [3] was 0.0744 10-3 s-1 and the kcat/Km [3] was 11.9 M⁻¹ s⁻¹. For the same protein, the Km [4] was 84.89 µM, the Vmax [4] was 0.351 pmol*min-1*μg protein-1 and the kcat [4] was 0.0524 10-3 s-1. The kcat/Km [4] was 0.618 M⁻¹ s⁻¹, the Km [5] was 18.33 µM and the Vmax [5] was 0.292 pmol*min-1*μg protein-1. The kcat [5] was 0.0436 10-3 s-1, the kcat/Km [5] was 2.38 M⁻¹ s⁻¹ and the Km [6] was 8.41 µM. For the same protein, the Vmax [6] was 4.21 pmol*min-1*μg protein-1, the kcat [6] was 0.630 10-3 s-1 and the kcat/Km [6] was 74.8 M⁻¹ s⁻¹. For the same protein, the Km [7] was 15.5 µM, the Vmax [7] was 1.01 pmol*min-1*μg protein-1 and the kcat [7] was 0.151 10-3 s-1. It also gave a kcat/Km [7] of 9.71 M⁻¹ s⁻¹, a Km [8] of 42.0 µM and a Vmax [8] of 46.4 pmol*min-1*μg protein-1. For the same protein, the kcat [8] was 6.93 10-3 s-1, the kcat/Km [8] was 165 M⁻¹ s⁻¹ and the Km [9] was 79.8 µM. For the same protein, the Vmax [9] was 1.02 pmol*min-1*μg protein-1, the kcat [9] was 0.153 10-3 s-1 and the kcat/Km [9] was 1.92 M⁻¹ s⁻¹. For the same protein, the Km [10] was 31.7 µM, the Vmax [10] was 0.18 pmol*min-1*μg protein-1 and the kcat [10] was 0.0266 10-3 s-1. The kcat/Km [10] was 0.840 M⁻¹ s⁻¹, the Km [11] was 20.5 µM and the Vmax [11] was 23.1 pmol*min-1*μg protein-1. For the same protein, the kcat [11] was 3.45 10-3 s-1, the kcat/Km [11] was 168 M⁻¹ s⁻¹ and the Km [12] was 73.5 µM. For the same protein, the Vmax [12] was 217 pmol*min-1*μg protein-1, the kcat [12] was 32.5 10-3 s-1 and the kcat/Km [12] was 442 M⁻¹ s⁻¹. The Km [13] was 32.49 µM, the Vmax [13] was 14.9 pmol*min-1*μg protein-1 and the kcat [13] was 2.22 10-3 s-1. It also gave a kcat/Km [13] of 68.4 M⁻¹ s⁻¹.
